# Test results as given in patent US20180335435A1 (METAFORA BIOSYSTEMS, published 2018).
# B1: BLV.RBD-mFc ligand (receptor-binding domain of the bovine leukemia virus envelope glycoprotein tagged in frame with the constant fragment of mouse … (Fc fusion)
# chain: WRCSLSLGNQQWMTTYNQEAKFFISIDQILEAHNQSPFCPRSPRYTLDFVNGYPKIYWPPPQGRRRFGARAMVTYDCEPRCPYVGADHFDCPHWDNASQADQGSFYVNHQTLFLHLKQCHGIFTLTWEIWGYDPLITFSLHKIPAPPQGSVDVPRDCGCKPCICTVPEVSSVFIFPPKPKDVLTITLTPKVTCVVVDISKDDPEVQFSWFVDDVEVHTAQTQPREEQFNSTFRSVSELPIMHQDWLNGKEFKCRVNSAAFPAPIEKTISKTKGRPKAPQVYTIPPPKEQMAKDKVSLTCMITDFFPEDITVEWQWNGQPAENYKNTQPIMDTDGSYFVYSKLNVQKSNWEAGNTFTCSVLHEGLHNHHTEKSLSHSPGK
# notes: Used as a 1/10 dilution, detected with anti-mouse IgG1-Alexa Fluor 488; also called BLV.RBD ligand; BLV.RBD tagged with mouse Fc (mFc)
# Target: T1, human CAT1 (cationic amino acid transporter-1, SLC7A1) (human, UniProt P30825 1-629)
# T1 construct: Endogenous on HEK293T cells or expressed from a human CAT1 vector in QT6, HEK293T or CHO cells; also called CAT1/SLC7A1; Hu-CAT1
# Experiment: flow cytometry on HEK293T cells transfected with siRNA to CAT1 (n=3)
# T1 sequence (P30825 whole entry): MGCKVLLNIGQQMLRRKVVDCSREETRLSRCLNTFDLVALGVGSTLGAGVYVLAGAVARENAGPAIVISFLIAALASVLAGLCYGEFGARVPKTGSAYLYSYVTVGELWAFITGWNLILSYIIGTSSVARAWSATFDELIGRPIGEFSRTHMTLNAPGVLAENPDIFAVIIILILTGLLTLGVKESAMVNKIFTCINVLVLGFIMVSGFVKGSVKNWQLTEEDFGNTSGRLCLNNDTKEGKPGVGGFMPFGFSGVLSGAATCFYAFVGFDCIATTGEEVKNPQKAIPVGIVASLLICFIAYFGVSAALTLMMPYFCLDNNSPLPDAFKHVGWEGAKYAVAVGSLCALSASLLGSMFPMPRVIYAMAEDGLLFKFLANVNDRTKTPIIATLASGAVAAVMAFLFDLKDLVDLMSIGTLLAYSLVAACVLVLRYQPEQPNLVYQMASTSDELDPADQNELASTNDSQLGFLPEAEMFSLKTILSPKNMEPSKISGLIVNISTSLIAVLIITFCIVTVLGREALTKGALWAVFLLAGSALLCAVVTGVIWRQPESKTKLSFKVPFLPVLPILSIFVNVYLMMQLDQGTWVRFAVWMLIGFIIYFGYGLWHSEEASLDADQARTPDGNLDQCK
binder,measurement,value
B1,fold decrease of binding after siRNA against CAT1 mRNA,3.5 fold
